Test results as given in patent US6632624.

Molecular target: CGS20
Experiment: competition: pancreastatin peptide (0.5 µg per tube) added in second incubation of CGS06/CGS20* IRMA

% inhibition: 86%
B1: synthetic peptide corresponding to pancreastatin (SEQ ID NO:1 amino acids 250 to 301 of human CgA) (peptide)
peptide: GESRSEALAVDGAGKPGAEEAQDPEGKGEQEHSQQKEEEEEMAVVPQGLFRG
